The target in test [1] is T1, human FcRn (soluble human FcRn complexed with β2-microglobulin) (human, UniProt P61769 21-119, limits assumed).
T1 construct: also called hFcRn
The test can be described thus: SPR, antibody captured by Protein L, human FcRn as analyte, pH 7.0, 25 C. (In general: In SPR one partner is held on a chip, and binding of the other changes the refractive index at the surface.)

Test [2] concerns the target T2, human FcγRIIb (human, UniProt P31994 43-217, limits assumed).
T2 construct: also called hFcgRIIb; FcγIIB
T2 sequence: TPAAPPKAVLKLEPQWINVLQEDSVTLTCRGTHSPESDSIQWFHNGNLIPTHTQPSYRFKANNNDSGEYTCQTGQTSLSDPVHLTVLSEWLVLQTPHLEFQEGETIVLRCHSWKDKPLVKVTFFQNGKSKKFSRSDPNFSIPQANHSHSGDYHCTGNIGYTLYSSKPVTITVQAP
The test can be described thus: SPR, antibody captured by Protein L, human FcγR as analyte, pH 7.4, 25 C.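 Note: biacore T100 or T200 with Protein L amine-coupled on a CM4 chip, FcγRs diluted in ACES saline with polysorbate 20, buffer-only injection as blank.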

The next test deals with T3, human FcγRIa (human, UniProt P12314 16-292, limits assumed).
T3 construct: also called hFcgRIa; hFcgRI
T3 sequence (P12314 16-292 limits assumed): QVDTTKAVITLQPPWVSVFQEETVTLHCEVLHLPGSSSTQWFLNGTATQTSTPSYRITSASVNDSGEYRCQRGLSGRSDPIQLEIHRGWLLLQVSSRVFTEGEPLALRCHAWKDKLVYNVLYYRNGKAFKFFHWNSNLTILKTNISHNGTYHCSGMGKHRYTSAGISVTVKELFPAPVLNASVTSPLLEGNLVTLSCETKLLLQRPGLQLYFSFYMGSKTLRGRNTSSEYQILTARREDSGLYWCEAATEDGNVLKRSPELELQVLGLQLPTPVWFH
The description is as above.

The next test has as its target T4, human FcγRIIIa(V) (human, UniProt P08637 17-208, limits assumed).
T4 construct: also called hFcgRIIIa(V); allotype V158
The description is as above.

The target in the next test is T5, human FcγRIIa(R) (human, UniProt P12318 36-217).
T5 construct: also called hFcgRIIa(R); FcγRIIa type R
T5 chain: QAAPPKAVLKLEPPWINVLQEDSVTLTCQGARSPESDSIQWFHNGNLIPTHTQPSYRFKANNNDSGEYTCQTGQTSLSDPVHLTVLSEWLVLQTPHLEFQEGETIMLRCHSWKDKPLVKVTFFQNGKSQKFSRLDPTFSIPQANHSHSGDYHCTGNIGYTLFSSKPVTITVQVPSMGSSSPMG
The test is described as above.

The target in another test is T6, human FcγRIIa(H) (human, UniProt P12318 36-217).
T6 construct: also called hFcgRIIa(H); FcγRIIa type H
T6 sequence: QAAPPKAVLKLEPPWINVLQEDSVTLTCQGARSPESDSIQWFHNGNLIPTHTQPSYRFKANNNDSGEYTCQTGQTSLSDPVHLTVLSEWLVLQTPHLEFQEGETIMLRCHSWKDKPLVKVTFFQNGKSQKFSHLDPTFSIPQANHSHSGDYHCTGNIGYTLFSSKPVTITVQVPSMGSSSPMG
Described as above.

The target in test [3] is T1, human FcRn (soluble human FcRn …). The test can be described thus: SPR, antibody captured by Protein L, human FcRn as analyte, pH 7.0, 25 C. This is another data set of the same source.
For a further test, the target named is T7, mouse FcγRIIb (mouse, UniProt P08101 30-207, limits assumed).
T7 construct: bought; also called mFcgRIIb; mFcgR IIb
T7 sequence (looked up): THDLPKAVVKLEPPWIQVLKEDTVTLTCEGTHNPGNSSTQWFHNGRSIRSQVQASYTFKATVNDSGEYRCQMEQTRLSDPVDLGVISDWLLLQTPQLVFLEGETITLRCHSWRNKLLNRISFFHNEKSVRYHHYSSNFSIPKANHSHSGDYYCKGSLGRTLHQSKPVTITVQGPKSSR
The test is described as follows: SPR, antibody captured by Protein L, mouse FcγR as analyte, pH 7.4, 25 C.

The target in the next test is T8, mouse FcγRIII (mouse, UniProt P08508 31-215).
T8 construct: bought; also called mFcgRIII; mFcgR III
T8 sequence (looked up): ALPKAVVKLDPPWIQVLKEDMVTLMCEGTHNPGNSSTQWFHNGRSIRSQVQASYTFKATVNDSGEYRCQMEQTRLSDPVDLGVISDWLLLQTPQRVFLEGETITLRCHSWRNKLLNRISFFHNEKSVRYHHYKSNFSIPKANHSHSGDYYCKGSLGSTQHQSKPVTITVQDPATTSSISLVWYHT
The test is described as above.

In the next test the target is T9, mouse FcγRIV (mouse, UniProt A0A0B4J1G0 21-203).
T9 construct: bought; also called mFcgRIV; mFcgR IV; the vendor's purification tag not given
T9 sequence: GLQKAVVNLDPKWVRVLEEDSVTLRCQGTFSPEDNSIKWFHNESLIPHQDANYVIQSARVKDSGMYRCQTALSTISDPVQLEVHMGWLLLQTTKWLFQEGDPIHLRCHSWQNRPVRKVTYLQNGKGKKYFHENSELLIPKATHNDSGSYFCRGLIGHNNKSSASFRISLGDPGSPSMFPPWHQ
Described as above.

The target of another test is T10, mouse FcγRI (mouse, UniProt P26151 25-297).
T10 construct: bought; also called mFcgRI; mFcgR 1
T10 sequence (looked up): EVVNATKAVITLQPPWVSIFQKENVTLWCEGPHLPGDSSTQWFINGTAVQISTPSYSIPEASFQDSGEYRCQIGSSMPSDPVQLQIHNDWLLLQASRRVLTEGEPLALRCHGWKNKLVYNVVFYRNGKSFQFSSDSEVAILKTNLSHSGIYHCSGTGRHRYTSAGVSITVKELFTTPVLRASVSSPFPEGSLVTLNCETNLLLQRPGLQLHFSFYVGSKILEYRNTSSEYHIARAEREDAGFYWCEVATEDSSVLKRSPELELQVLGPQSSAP
The test is described as above.

The target in test [4] is T11, human FcγRIIb (human, UniProt P31994 43-217, limits assumed).
T11 construct: also called FcγIIB
T11 sequence: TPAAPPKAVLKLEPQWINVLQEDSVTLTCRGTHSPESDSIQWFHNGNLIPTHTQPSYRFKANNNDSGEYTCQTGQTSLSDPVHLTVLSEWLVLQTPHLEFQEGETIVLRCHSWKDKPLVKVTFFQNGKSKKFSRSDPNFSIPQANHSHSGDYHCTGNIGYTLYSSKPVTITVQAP
The test is described as follows: SPR (Biacore); ratio against IgG1.

In test [5] the target is T11, human FcγRIIb. The test is described as follows: SPR (Biacore), antibody captured, FcγR as analyte.
The target of test [6] is T11, human FcγRIIb. The test can be described thus: SPR (Biacore); ratio against IgG1. The source holds these as a separate data set.
Test [7] addresses T11, human FcγRIIb. The test can be described thus: SPR (Biacore), antibody captured, FcγR as analyte. This is another data set of the same source.

Where two headings read alike, the source gives them in different places.

We go through seven molecules from patent US20200199241A1 (Chugai, published 2020).

One may read the Kd as the free concentration of one partner at which half of the binding sites on the other are occupied at equilibrium, for simple one-to-one binding. Higher therefore signals a looser complex.

T1 sequence (chain, as listed by the source limits assumed, chain 1 of 2): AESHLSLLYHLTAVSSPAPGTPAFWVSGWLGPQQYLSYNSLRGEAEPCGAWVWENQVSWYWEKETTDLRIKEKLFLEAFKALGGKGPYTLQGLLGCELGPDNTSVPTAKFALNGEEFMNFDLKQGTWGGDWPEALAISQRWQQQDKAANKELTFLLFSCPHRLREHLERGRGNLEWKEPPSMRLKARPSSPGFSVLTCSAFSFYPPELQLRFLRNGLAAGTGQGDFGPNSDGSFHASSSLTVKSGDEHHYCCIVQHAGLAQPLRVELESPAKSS
T1 sequence (P61769 21-119 limits assumed, chain 2 of 2): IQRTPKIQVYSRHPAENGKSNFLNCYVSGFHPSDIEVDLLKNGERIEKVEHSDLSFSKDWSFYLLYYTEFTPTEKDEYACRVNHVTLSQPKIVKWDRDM
T4 sequence (P08637 other isoform, or with tags, fused parts or gaps limits assumed): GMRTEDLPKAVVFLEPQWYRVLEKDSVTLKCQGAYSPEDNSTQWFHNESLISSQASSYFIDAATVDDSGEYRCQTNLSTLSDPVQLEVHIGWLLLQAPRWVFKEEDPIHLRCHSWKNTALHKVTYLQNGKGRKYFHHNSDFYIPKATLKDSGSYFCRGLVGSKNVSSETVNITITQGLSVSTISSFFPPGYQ

B1: antibody with VH3-IgG1-F1009 heavy chain and L(WT)-CK light chain (antibody)
heavy: QVQLQESGPGLVKPSETLSLTCAVSGHSISHDHAWSWVRQPPGEGLEWIGFISYSGITNYNPSLQGRVTISRDNSKNTLYLQMNSLRAEDTAVYYCARSLARTTAMDYWGEGTLVTVSSASTKGPSVFPLAPSSKSTSGGTAALGCLVKDYFPEPVTVSWNSGALTSGVHTFPAVLQSSGLYSLSSVVTVPSSSLGTQTYICNVNHKPSNTKVDKKVEPKSCDKTHTCPPCPAPELRGGPKVFLFPPKPKDVLYISRTPEVTCVVVDVSHEDPEVKFNWYVDGVEVHNAKTKPREEQYNSTYRVVSVLQPLHADWLNGKEYKCKVSNKALPAPIEKTISKAKGQPREPQVYTLPPSRDELTKNQVSLTCLVKGFYPSDIAVEWESNGQPENNYKTTPPVLDSDGSFFLYSKLTVDKSRWQQGNVFSCSVMHEALHYHVTQKSLSLSP
light: not shown
notes: L235R/S239K/T250V/M252Y/T307Q/V308P/Q311A/N434Y/Y436V; copies: 2 + 2
As for B1, the Kd in test [1] and in test [3] was 12 nM throughout. In addition, the “BINDING AMOUNT (RU)” value with human FcγRIIb [2] is 0.16 RU; with human FcγRIa, 0.31 RU; in the test with human FcγRIIIa(V), 3.64 RU; with human FcγRIIa(R), -0.27 RU; with human FcγRIIa(H), -0.02 RU; with mouse FcγRIIb, -1.5 RU. The entries for the “BINDING AMOUNT (RU)” value with mouse FcγRIII, with mouse FcγRIV and in the test with mouse FcγRI were -12.9 RU, 7.2 RU and 0.6 RU, respectively.

B2: antibody with VH3-IgG1-F1327 heavy chain and L(WT)-CK light chain (antibody)
heavy: QVQLQESGPGLVKPSETLSLTCAVSGHSISHDHAWSWVRQPPGEGLEWIGFISYSGITNYNPSLQGRVTISRDNSKNTLYLQMNSLRAEDTAVYYCARSLARTTAMDYWGEGTLVTVSSASTKGPSVFPLAPSSKSTSGGTAALGCLVKDYFPEPVTVSWNSGALTSGVHTFPAVLQSSGLYSLSSVVTVPSSSLGTQTYICNVNHKPSNTKVDKKVEPKSCDKTHTCPPCPAPEAAGGPSVFLFPPKPKDVLYISRTPEVTCVVVDVSHEDPEVKFNWYVDGVEVHNAKTKPREEQYASTYRVVSVLQPLHADWLNGKEYKCKVSNKALPAPIEKTISKAKGQPREPQVYTLPPSRDELTKNQVSLTCLVKGFYPSDIAVEWESNGQPENNYKTTPPVLDSDGSFFLYSKLTVDKSRWQQGNVFSCSVMHEALHYHVTQKSLSLSP
light: not shown
notes: L234A/L235A/N297A on VH3-IgG1-F947; copies: 2 + 2
As to B2, the “BINDING AMOUNT (RU)” value with human FcγRIIb [2] was 0.74 RU; with human FcγRIa, 0.87 RU; in the test with human FcγRIIIa(V) it was -0.6 RU; with human FcγRIIa(R) it was -0.2 RU; with human FcγRIIa(H), -1.14 RU. Further, the affinity in [3], expressed as Kd, was 14 nM.

B3: IgG1-v1 (antibody)
heavy: not shown
light: DIQMTQSPSSLSASVGDRVTITCRASQDISSYLNWYQQKPGKAPKLLIYYTSRLHSGVPSRFSGSGSGTDFTFTISSLQPEDIATYYCQQGNTLPYTFGQGTKVEIK
notes: IL6R-G1d with P238D (EU numbering); also called IL6R-G1d-v1
In the case of B3, the “relative KD for FcγRIIb (KD for IgG1/KD for each variant)” value (from here on “relative KD for FcγRIIb”) with human FcγRIIb [4] and with human FcγRIIb [6] was 4.8 throughout. Further, the Kd in the test with human FcγRIIb [5] and with human FcγRIIb [7] was 1100 nM each time.

B4: IgG1-v4 (antibody)
heavy: not shown
light: DIQMTQSPSSLSASVGDRVTITCRASQDISSYLNWYQQKPGKAPKLLIYYTSRLHSGVPSRFSGSGSGTDFTFTISSLQPEDIATYYCQQGNTLPYTFGQGTKVEIK
notes: IL6R-G1d with P238D/L328E (EU numbering); also called IL6R-G1d-v4; P238D/L328E
Take B4: the “relative KD for FcγRIIb” value in the test with human FcγRIIb [6] turned out to be 0.47. In the test with human FcγRIIb [7], this molecule showed a Kd of 11000 nM.

B5: IgG1-v3 (antibody)
heavy: not shown
light: DIQMTQSPSSLSASVGDRVTITCRASQDISSYLNWYQQKPGKAPKLLIYYTSRLHSGVPSRFSGSGSGTDFTFTISSLQPEDIATYYCQQGNTLPYTFGQGTKVEIK
notes: IL6R-G1d with S267E/L328F (EU numbering); also called S267E/L328F
On to B5, for which the “relative KD for FcγRIIb” value in the test with human FcγRIIb [4] came to 408. The Kd with human FcγRIIb [5] worked out at 13 nM.

B6: IgG1-v2 (antibody)
heavy: not shown
light: DIQMTQSPSSLSASVGDRVTITCRASQDISSYLNWYQQKPGKAPKLLIYYTSRLHSGVPSRFSGSGSGTDFTFTISSLQPEDIATYYCQQGNTLPYTFGQGTKVEIK
notes: IL6R-G1d with L328E (EU numbering); also called L328E
For the molecule B6, in the test with human FcγRIIb [6], the “relative KD for FcγRIIb” value was 2.3. In the test with human FcγRIIb [7], this molecule displayed a Kd of 2300 nM.

B7: IgG1-v5 (antibody)
heavy: QVQLQESGPGLVKPSETLSLTCAVSGHSISHDHAWSWVRQPPGEGLEWIGFISYSGITNYNPSLQGRVTISRDNSKNTLYLQMNSLRAEDTAVYYCARSLARTTAMDYWGEGTLVTVSSASTKGPSVFPLAPSSKSTSGGTAALGCLVKDYFPEPVTVSWNSGALTSGVHTFPAVLQSSGLYSLSSVVTVPSSSLGTQTYICNVNHKPSNTKVDKKVEPKSCDKTHTCPPCPAPELLGGDSVFLFPPKPKDTLMISRTPEVTCVVVDVEHEDPEVKFNWYVDGVEVHNAKTKPREEQYNSTYRVVSVLTVLHQDWLNGKEYKCKVSNKAFPAPIEKTISKAKGQPREPQVYTLPPSRDELTKNQVSLTCLVKGFYPSDIAVEWESNGQPENNYKTTPPVLDSDGSFFLYSKLTVDKSRWQQGNVFSCSVMHEALHNHYTQKSLSLSP
light: DIQMTQSPSSLSASVGDRVTITCRASQDISSYLNWYQQKPGKAPKLLIYYTSRLHSGVPSRFSGSGSGTDFTFTISSLQPEDIATYYCQQGNTLPYTFGQGTKVEIK
notes: IL6R-G1d with P238D/S267E/L328F (EU numbering); The L chain is not restated for v5; also called IL6R-G1d-v5; P238D/S267E/L328F
For B7, in the test with human FcγRIIb [4], the “relative KD for FcγRIIb” value was found to be 12. The same molecule showed an equilibrium dissociation constant (Kd) in the test with human FcγRIIb [5] of 450 nM.
